US20230406885A1, “CYCLIC PEPTIDES FOR TRAPPING INTERLEUKIN-1 BETA” (MERCK SHARP & DOHME LLC, priority 2022, published 2023)
*1 amine or outer side, *2 acyl side, *3 side chain or, on linkers, in order; H or OH if unused. [ ]: non-standard residue; d: D form. TyrEtNAc = L-tyrosine O-ethyl acetamide, (S)-3-(4-(2-acetamidoethoxy)phenyl)-2-aminopropanoic acid, CC(=O)NCCOc1ccc(C[C@H](N[*:1])C(=O)[*:2])cc1; PyrimAla4AcPip = (S)-3-(2-(4-acetylpiperazin-1-yl)pyrimidin-5-yl)-2-aminopropanoic acid, CC(=O)N1CCN(c2ncc(C[C@H](N[*:1])C(=O)[*:2])cn2)CC1; 3AzaPhe4AcPip = (S)-3-(6-(4-acetylpiperazin-1-yl)pyridin-3-yl)-2-aminopropanoic acid, CC(=O)N1CCN(c2ccc(C[C@H](N[*:1])C(=O)[*:2])cn2)CC1; Prot4NHCH2CH2Ph = (2S,4R)-4-(phenethylamino)pyrrolidine-2-carboxylic acid, O=C([C@@H]1C[C@@H](N(CCc2ccccc2)[*:3])CN1[*:1])[*:2]; 3AzaTyrEtNAc = (S)-3-(6-(2-acetamidoethoxy)pyridin-3-yl)-2-aminopropanoic acid, CC(=O)NCCOc1ccc(C[C@H](N[*:1])C(=O)[*:2])cn1; Prot4NHBn = (2S,4R)-4-(benzylamino)pyrrolidine-2-carboxylic acid, O=C([C@@H]1C[C@@H](N(Cc2ccccc2)[*:3])CN1[*:1])[*:2]; Prot4NHEt = (2S,4R)-4-(ethylamino)pyrrolidine-2-carboxylic acid, CCN([C@@H]1C[C@@H](C(=O)[*:2])N([*:1])C1)[*:3]; Phe(4-(4-Ac-piperazinyl)) = CC(=O)N1CCN(c2ccc(C[C@H](N)C(=O)O)cc2)CC1; Trp(4-Cl)(βS-Me) = C[C@@H](c1c[nH]c2cccc(Cl)c12)[C@H](N)C(=O)O; Pro(trans-4-NH2) = O=C([C@@H]1C[C@@H](N[*:3])CN1[*:1])[*:2]; Trp(βS-Me,4-F) = C[C@@H](c1c[nH]c2cccc(F)c12)[C@H](N)C(=O)O; Bip(4'-COOH) = N[C@@H](Cc1ccc(-c2ccc(C(=O)O)cc2)cc1)C(=O)O; 1Nal(3S-Me) = C[C@@H](c1cccc2ccccc12)[C@H](N)C(=O)O; Ala(indazol-1-yl) = N[C@@H](Cn1ncc2ccccc21)C(=O)O; Phe(4-COOH) = N[C@@H](Cc1ccc(C(=O)O)cc1)C(=O)O; h3Pal(5-CN) = N#Cc1cncc(CC[C@H](N)C(=O)O)c1; hTyr = N[C@@H](CCc1ccc(O)cc1)C(=O)O; dDab = NCC[C@@H](N)C(=O)O; dNMeA = CN[C@H](C)C(=O)O; Nva = CCC[C@H](N)C(=O)O; Dap = NC[C@H](N)C(=O)O

Target: Recombinant human IL-1β (BioLegend 579404) (human, UniProt P01584 117-269)
Test: cell-based or functional assay

Binder | MRC5 IC50
cyclo([PyrimAla4AcPip]W[Phe(4-COOH)]G[Pro(trans-4-NH2)][1Nal(3S-Me)]D[dNMeA]G[Bip(4'-COOH)]W[Dap][dA][hTyr]) (SMILES CC(=O)N1CCN(c2ncc(C[C@@H]3NC(=O)[C@H](CCc4ccc(O)cc4)NC(=O)[C@@H](C)NC(=O)[C@H](CN)NC(=O)[C@H](Cc4c[nH]c5ccccc45)NC(=O)[C@H](Cc4ccc(-c5ccc(C(=O)O)cc5)cc4)NC(=O)CNC(=O)[C@@H](C)N(C)C(=O)[C@H](CC(=O)O)NC(=O)[C@H]([C@@H](C)c4cccc5ccccc45)NC(=O)[C@@H]4C[C@@H](N)CN4C(=O)CNC(=O)[C@H](Cc4ccc(C(=O)O)cc4)NC(=O)[C@H](Cc4c[nH]c5ccccc45)NC3=O)cn2)CC1) [SEQ ID NO: 88] | 0.0945 nM
cyclo([Phe(4-(4-Ac-piperazinyl))]W[Phe(4-COOH)]G[Pro(trans-4-NH2)][Trp(4-Cl)(βS-Me)]D[dNMeA]G[Bip(4'-COOH)]WG[dDab][hTyr]) (SMILES CC(=O)N1CCN(c2ccc(C[C@@H]3NC(=O)[C@H](CCc4ccc(O)cc4)NC(=O)[C@@H](CCN)NC(=O)CNC(=O)[C@H](Cc4c[nH]c5ccccc45)NC(=O)[C@H](Cc4ccc(-c5ccc(C(=O)O)cc5)cc4)NC(=O)CNC(=O)[C@@H](C)N(C)C(=O)[C@H](CC(=O)O)NC(=O)[C@H]([C@@H](C)c4c[nH]c5cccc(Cl)c45)NC(=O)[C@@H]4C[C@@H](N)CN4C(=O)CNC(=O)[C@H](Cc4ccc(C(=O)O)cc4)NC(=O)[C@H](Cc4c[nH]c5ccccc45)NC3=O)cc2)CC1) [SEQ ID NO: 85] | 0.0543 nM
cyclo([TyrEtNAc]W[Phe(4-COOH)]G[Pro(trans-4-NH2)][1Nal(3S-Me)]A[dNMeA]G[Bip(4'-COOH)]W[Dap][dA][hTyr]) (SMILES CC(=O)NCCOc1ccc(C[C@@H]2NC(=O)[C@H](CCc3ccc(O)cc3)NC(=O)[C@@H](C)NC(=O)[C@H](CN)NC(=O)[C@H](Cc3c[nH]c4ccccc34)NC(=O)[C@H](Cc3ccc(-c4ccc(C(=O)O)cc4)cc3)NC(=O)CNC(=O)[C@@H](C)N(C)C(=O)[C@H](C)NC(=O)[C@H]([C@@H](C)c3cccc4ccccc34)NC(=O)[C@@H]3C[C@@H](N)CN3C(=O)CNC(=O)[C@H](Cc3ccc(C(=O)O)cc3)NC(=O)[C@H](Cc3c[nH]c4ccccc34)NC2=O)cc1) [SEQ ID NO: 89] | 0.271 nM
cyclo([Bip(4'-COOH)]W[Phe(4-COOH)]G[Prot4NHEt][1Nal(3S-Me)]D[dNMeA]G[Bip(4'-COOH)]W[Dap][dA][hTyr]) (SMILES CCN[C@@H]1C[C@H]2C(=O)N[C@@H]([C@@H](C)c3cccc4ccccc34)C(=O)N[C@@H](CC(=O)O)C(=O)N(C)[C@H](C)C(=O)NCC(=O)N[C@@H](Cc3ccc(-c4ccc(C(=O)O)cc4)cc3)C(=O)N[C@@H](Cc3c[nH]c4ccccc34)C(=O)N[C@@H](CN)C(=O)N[C@H](C)C(=O)N[C@@H](CCc3ccc(O)cc3)C(=O)N[C@@H](Cc3ccc(-c4ccc(C(=O)O)cc4)cc3)C(=O)N[C@@H](Cc3c[nH]c4ccccc34)C(=O)N[C@@H](Cc3ccc(C(=O)O)cc3)C(=O)NCC(=O)N2C1) [SEQ ID NO: 84] | 0.0258 nM
cyclo([Bip(4'-COOH)]W[Phe(4-COOH)]G[Pro(trans-4-NH2)][Trp(βS-Me,4-F)]N[dNMeA]G[Bip(4'-COOH)]KL[dDab][hTyr]) (SMILES CC(C)C[C@@H]1NC(=O)[C@H](CCCCN)NC(=O)[C@H](Cc2ccc(-c3ccc(C(=O)O)cc3)cc2)NC(=O)CNC(=O)[C@@H](C)N(C)C(=O)[C@H](CC(N)=O)NC(=O)[C@H]([C@@H](C)c2c[nH]c3cccc(F)c23)NC(=O)[C@@H]2C[C@@H](N)CN2C(=O)CNC(=O)[C@H](Cc2ccc(C(=O)O)cc2)NC(=O)[C@H](Cc2c[nH]c3ccccc23)NC(=O)[C@H](Cc2ccc(-c3ccc(C(=O)O)cc3)cc2)NC(=O)[C@H](CCc2ccc(O)cc2)NC(=O)[C@@H](CCN)NC1=O) [SEQ ID NO: 81] | 0.255 nM
cyclo([Bip(4'-COOH)]W[Phe(4-COOH)]G[Prot4NHBn][1Nal(3S-Me)]D[dNMeA]G[Bip(4'-COOH)]W[Dap][dA][hTyr]) (SMILES C[C@@H]1C(=O)NCC(=O)N[C@@H](Cc2ccc(-c3ccc(C(=O)O)cc3)cc2)C(=O)N[C@@H](Cc2c[nH]c3ccccc23)C(=O)N[C@@H](CN)C(=O)N[C@H](C)C(=O)N[C@@H](CCc2ccc(O)cc2)C(=O)N[C@@H](Cc2ccc(-c3ccc(C(=O)O)cc3)cc2)C(=O)N[C@@H](Cc2c[nH]c3ccccc23)C(=O)N[C@@H](Cc2ccc(C(=O)O)cc2)C(=O)NCC(=O)N2C[C@H](NCc3ccccc3)C[C@H]2C(=O)N[C@@H]([C@@H](C)c2cccc3ccccc23)C(=O)N[C@@H](CC(=O)O)C(=O)N1C) [SEQ ID NO: 82] | 0.0157 nM

Second part, the binder after the results:

MRC5 IC50 | Binder
0.118 nM | cyclo([3AzaTyrEtNAc]W[Phe(4-COOH)]G[Pro(trans-4-NH2)][Trp(βS-Me,4-F)]D[dNMeA]G[Bip(4'-COOH)]KL[dA][hTyr]) (SMILES CC(=O)NCCOc1ccc(C[C@@H]2NC(=O)[C@H](CCc3ccc(O)cc3)NC(=O)[C@@H](C)NC(=O)[C@H](CC(C)C)NC(=O)[C@H](CCCCN)NC(=O)[C@H](Cc3ccc(-c4ccc(C(=O)O)cc4)cc3)NC(=O)CNC(=O)[C@@H](C)N(C)C(=O)[C@H](CC(=O)O)NC(=O)[C@H]([C@@H](C)c3c[nH]c4cccc(F)c34)NC(=O)[C@@H]3C[C@@H](N)CN3C(=O)CNC(=O)[C@H](Cc3ccc(C(=O)O)cc3)NC(=O)[C@H](Cc3c[nH]c4ccccc34)NC2=O)cn1) [SEQ ID NO: 9]
0.0329 nM | cyclo([Bip(4'-COOH)]W[Phe(4-COOH)]G[Prot4NHCH2CH2Ph][1Nal(3S-Me)]D[dNMeA]G[Bip(4'-COOH)]W[Dap][dA][hTyr]) (SMILES C[C@@H]1C(=O)NCC(=O)N[C@@H](Cc2ccc(-c3ccc(C(=O)O)cc3)cc2)C(=O)N[C@@H](Cc2c[nH]c3ccccc23)C(=O)N[C@@H](CN)C(=O)N[C@H](C)C(=O)N[C@@H](CCc2ccc(O)cc2)C(=O)N[C@@H](Cc2ccc(-c3ccc(C(=O)O)cc3)cc2)C(=O)N[C@@H](Cc2c[nH]c3ccccc23)C(=O)N[C@@H](Cc2ccc(C(=O)O)cc2)C(=O)NCC(=O)N2C[C@H](NCCc3ccccc3)C[C@H]2C(=O)N[C@@H]([C@@H](C)c2cccc3ccccc23)C(=O)N[C@@H](CC(=O)O)C(=O)N1C) [SEQ ID NO: 83]
0.14 nM | cyclo([3AzaPhe4AcPip]W[Phe(4-COOH)]G[Pro(trans-4-NH2)][Trp(βS-Me,4-F)]D[dNMeA]G[Bip(4'-COOH)]WG[dDab][hTyr]) (SMILES CC(=O)N1CCN(c2ccc(C[C@@H]3NC(=O)[C@H](CCc4ccc(O)cc4)NC(=O)[C@@H](CCN)NC(=O)CNC(=O)[C@H](Cc4c[nH]c5ccccc45)NC(=O)[C@H](Cc4ccc(-c5ccc(C(=O)O)cc5)cc4)NC(=O)CNC(=O)[C@@H](C)N(C)C(=O)[C@H](CC(=O)O)NC(=O)[C@H]([C@@H](C)c4c[nH]c5cccc(F)c45)NC(=O)[C@@H]4C[C@@H](N)CN4C(=O)CNC(=O)[C@H](Cc4ccc(C(=O)O)cc4)NC(=O)[C@H](Cc4c[nH]c5ccccc45)NC3=O)cn2)CC1) [SEQ ID NO: 8]
0.0507 nM | cyclo([TyrEtNAc]W[Phe(4-COOH)]G[Pro(trans-4-NH2)][1Nal(3S-Me)]D[dNMeA]G[Bip(4'-COOH)][Ala(indazol-1-yl)]G[dDab][h3Pal(5-CN)]) (SMILES CC(=O)NCCOc1ccc(C[C@@H]2NC(=O)[C@H](CCc3cncc(C#N)c3)NC(=O)[C@@H](CCN)NC(=O)CNC(=O)[C@H](Cn3ncc4ccccc43)NC(=O)[C@H](Cc3ccc(-c4ccc(C(=O)O)cc4)cc3)NC(=O)CNC(=O)[C@@H](C)N(C)C(=O)[C@H](CC(=O)O)NC(=O)[C@H]([C@@H](C)c3cccc4ccccc34)NC(=O)[C@@H]3C[C@@H](N)CN3C(=O)CNC(=O)[C@H](Cc3ccc(C(=O)O)cc3)NC(=O)[C@H](Cc3c[nH]c4ccccc34)NC2=O)cc1) [SEQ ID NO: 90]
0.189 nM | cyclo([Bip(4'-COOH)]W[Phe(4-COOH)]G[Pro(trans-4-NH2)][Trp(βS-Me,4-F)]D[dNMeA]G[Bip(4'-COOH)]W[Nva][dA]A) (SMILES CCC[C@@H]1NC(=O)[C@H](Cc2c[nH]c3ccccc23)NC(=O)[C@H](Cc2ccc(-c3ccc(C(=O)O)cc3)cc2)NC(=O)CNC(=O)[C@@H](C)N(C)C(=O)[C@H](CC(=O)O)NC(=O)[C@H]([C@@H](C)c2c[nH]c3cccc(F)c23)NC(=O)[C@@H]2C[C@@H](N)CN2C(=O)CNC(=O)[C@H](Cc2ccc(C(=O)O)cc2)NC(=O)[C@H](Cc2c[nH]c3ccccc23)NC(=O)[C@H](Cc2ccc(-c3ccc(C(=O)O)cc3)cc2)NC(=O)[C@H](C)NC(=O)[C@@H](C)NC1=O) [SEQ ID NO: 79]
0.291 nM | cyclo([Bip(4'-COOH)]W[Phe(4-COOH)]G[Pro(trans-4-NH2)][Trp(βS-Me,4-F)]N[dNMeA]G[Bip(4'-COOH)]KL[dA][hTyr]) (SMILES CC(C)C[C@@H]1NC(=O)[C@H](CCCCN)NC(=O)[C@H](Cc2ccc(-c3ccc(C(=O)O)cc3)cc2)NC(=O)CNC(=O)[C@@H](C)N(C)C(=O)[C@H](CC(N)=O)NC(=O)[C@H]([C@@H](C)c2c[nH]c3cccc(F)c23)NC(=O)[C@@H]2C[C@@H](N)CN2C(=O)CNC(=O)[C@H](Cc2ccc(C(=O)O)cc2)NC(=O)[C@H](Cc2c[nH]c3ccccc23)NC(=O)[C@H](Cc2ccc(-c3ccc(C(=O)O)cc3)cc2)NC(=O)[C@H](CCc2ccc(O)cc2)NC(=O)[C@@H](C)NC1=O) [SEQ ID NO: 80]
